Test results as given in article PMC3491057, “Proliferating Cell Nuclear Antigen (PCNA) Interactions in Solution Studied by NMR” (PLoS ONE, 2012).
“Also recorded” adds a separate entry of the source. One block for each molecule: values may come before it.

What was measured:
PCNA [1] = settings: co-immunoprecipitation, lysates from co-transfected human embryonic cells and native HeLa cells; cited from earlier work
From the text: MCL-1 is a member of the pro-survival B-cell lymphoma-leukemia-2 (Bcl-2) family that preserves mitochondrial integrity during apoptosis. It consists of an intrinsically disordered, 170 residue long N-terminal region and a C-terminal globular domain with three Bcl-2 homology (BH) regions. […] MCL-1 has a sequence that meets this minimal PIP-box motif (^221 […] ^228) at the end of the BH3 region in its globular C-terminal domain.

[2] = tested on: PCNA C-terminal fragment 137–261; settings: yeast two-hybrid; cited from earlier work
From the text: MCL-1 has a sequence that meets this minimal PIP-box motif (^221 […] ^228) at the end of the BH3 region in its globular C-terminal domain.

human PCNA = target: T1, human PCNA (Homo sapiens, UniProt P12004); experiment: NMR (TROSY) examination of the interaction of PCNA with MCL-1 construct; assay type: binding; settings: 35°C; for binding to PCNA (chemical shift or intensity changes): 50 µM 2H-15N PCNA, 220 µM MCL-1 construct (4.4 equivalents), 10 mM Tris pH 7.4, 250 mM NaCl, 1 mM EDTA, 0.5 mM DTT, 800 MHz
T1 construct: His6 tag with PreScission protease cleavage site (N, cleaved yes); made in house; host or cells: E. coli
T1 sequence (P12004 whole entry): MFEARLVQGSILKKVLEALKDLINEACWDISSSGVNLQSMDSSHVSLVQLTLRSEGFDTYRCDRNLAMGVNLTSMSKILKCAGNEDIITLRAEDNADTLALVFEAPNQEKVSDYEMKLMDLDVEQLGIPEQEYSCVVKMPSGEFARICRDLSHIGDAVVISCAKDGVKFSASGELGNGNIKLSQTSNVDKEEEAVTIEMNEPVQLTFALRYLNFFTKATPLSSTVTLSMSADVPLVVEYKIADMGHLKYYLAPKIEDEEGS
Experimental: The human MCL-1 ΔN151−ΔC7 construct cloned in vector pET32a was expressed and purified as described. Briefly, the protein was expressed in E. coli BL21(DE3) cells with a histidine-tag and a Tev protease site at the N-terminus, and was purified by two chromatography steps: immobilized nickel ion affinity and size exclusion.
Unless indicated otherwise, the NMR spectra were recorded on a Bruker AV600 spectrometer equipped with a cryogenically-cooled triple resonance z-gradient probe at 35°C on PCNA samples with or without ligands in PBS pH 7.0. The spectra in Figures S2, S4, S7 and S8 were recorded on a Bruker AV800 spectrometer with a cryogenically-cooled triple resonance z-gradient probe on samples and buffers described in the corresponding legends. TROSY-based 3D HNCO, HN(CA)CO, HNCACB, HN(CO)CACB, and HNCA [21] were recorded for resonance assignment. Spectra were processed with TopSpin (Bruker) or with NMRPipe and analyzed using NMRView. Peak intensities were evaluated by the peak heights measured using CCPNMR [24].
We have monitored the binding of MCL-1 to PCNA by NMR using an MCL-1 construct that lacks most of the disordered N-terminal region but retains the C-terminal domain correctly folded. […] As no significant CSPs were measured, it is not possible to confirm the interaction, but a lower limit for the dissociation constant of the putative complex can be estimated. Assuming an equimolar complex, and that we should be able to detect significant changes when at least 20% of PCNA is bound to MCL-1 [42], a lower limit of the dissociation constant can be calculated. […]
Supplementary file pone.0048390.s007.tif: Figure S7 NMR examination of the interaction of PCNA with MCL-1. ^1H-^15N TROSY spectra of 50 µM uniformly labeled ^2H-^15N PCNA alone (black) or in the presence (red) of 220 µM of the ΔN151−ΔC7 fragment of human MCL-1 (1∶4.4 ratio on a PCNA monomer basis). The spectra were recorded in 10 mM Tris pH 7.4, 250 mM NaCl, 1 mM EDTA, 0.5 mM DTT at 800 MHz and 35°C. […]

PCNA [3] = tested on: PCNA; design: method as in PMID 20460379; settings: cited from earlier work

B1: MCL-1: Myeloid cell leukemia 1 protein, literature interaction with PCNA (protein)
chain: NNTSTDGSLPSTPPPAEEEEDELYRQSLEIISRYLREQATGAKDTKPMGRSGATSRKALETLRRVGDGVQRNHETAFQGMLRKLDIKNEDDVKSLSRVMIHVFSDGVTNWGRIVTLISFGAFVAKHLKTINQESCIEPLAESITDVLVRTKRDWLVKQRGWDGFVEFFHVEDLEGGIRNVLLAFAGVAGVGA
modifications: left off: His tag, N-terminal, kept
interaction with PCNA (PCNA [1]): interact with PCNA; also recorded: detected by co-immunoprecipitation
interaction with PCNA fragment 137–261 [2]: sufficient for the interaction with MCL-1

binding to PCNA (chemical shift or intensity changes) (human PCNA; listed as Bcl-2 domain of MCL-1): did not detect binding
Kd (human PCNA; assuming equimolar complex and detection at ≥20% PCNA bound, 50 µM PCNA, 220 µM MCL-1 construct, read-out: dissociation constant (lower limit)): > 840 µM
B2: ΔN151−ΔC7: MCL-1 residues 152–343 plus an N-terminal histidine-tag (protein)
chain: B1 chain
modifications: left off: His tag, N-terminal, kept
binding to PCNA (chemical shift or intensity changes) (human PCNA): did not observe any indication of binding

B3: Gadd45α: Growth arrest and DNA damage 45 alpha protein (protein, UniProt P24522 1-165, looked up)
Growth arrest and DNA …: MTLEEFSAGEQKTERMDKVGDALEEVLSKALSQRTITVGVYEAAKLLNVDPDNVVLCLLAADEDDDRDVALQIHFTLIQAFCCENDINILRVSNPGRLAELLLLETDAGPAASEGAEQPPDLHCVLVTNPHSSQWKDPALSQLICFCRESRYMDQWVPVINLPER
direct interaction with PCNA in solution (PCNA [3]): extremely weak
